Measured values from the Human Domainome abundance scans (Beltran et al. 2025).
± gives the uncertainty stated by the source.

B1: 3'-5' exoribonuclease 1, residues 65 to 114; numbered along this chain, Q8IV48 (parent)
chain: VYKEIAITNGCINRMSKEELRAKLSEFKLETRGVKDVLKKRLKNYYKKQK

Variants of: B1
Experiment: abundance fitness (aPCA) (normalised: wild type 0, dead -1); higher = more abundant; growth selection in yeast, the domain comes from the species named
Conditions: Homo sapiens

Row | Variant | abundance fitness
1 | R14Y | -0.826 ± 0.059
2 | R14Q | -0.072 ± 0.048
3 | R14L | -0.43 ± 0.037
4 | R14V | -0.65 ± 0.036
5 | R14H | -0.166 ± 0.057
6 | R14S | -0.129 ± 0.036
7 | E30N | -0.16 ± 0.042
8 | E30P | -0.283 ± 0.035
9 | E30T | -0.566 ± 0.038
10 | E30V | -0.738 ± 0.058
11 | R21C | -0.474 ± 0.049
12 | R21Y | -0.773 ± 0.075
13 | R21Q | -0.221 ± 0.052
14 | Y45E | -0.63 ± 0.048
15 | Y45C | -0.399 ± 0.06
16 | Y45D | -0.954 ± 0.076
17 | Y45A | -0.383 ± 0.038
18 | Y45L | -0.637 ± 0.045
19 | Y45S | -0.279 ± 0.042
20 | Y45K | -0.916 ± 0.081
21 | Y45N | -0.64 ± 0.081
22 | S16N | -0.041 ± 0.078
23 | S16A | -0.445 ± 0.082
24 | S16M | -1.08 ± 0.26

Row | Variant | abundance fitness
25 | K17C | -0.113 ± 0.086
26 | K17G | -0.603 ± 0.094
27 | R32L | -0.703 ± 0.035
28 | R32S | -0.318 ± 0.033
29 | R32D | -0.399 ± 0.049
30 | R32F | -0.521 ± 0.042
31 | R32C | -0.459 ± 0.04
32 | N44P | -0.767 ± 0.054
33 | N44Y | -0.27 ± 0.059
34 | N44Q | -0.063 ± 0.046
35 | N44C | -0.211 ± 0.066
36 | D36G | -0.244 ± 0.035
37 | D36R | 0 ± 0.035
38 | D36Q | -0.236 ± 0.047
39 | D36E | -0.379 ± 0.051
40 | D36T | -0.042 ± 0.037
41 | D36F | -0.289 ± 0.035
42 | G33W | -0.779 ± 0.11
43 | G33H | -0.875 ± 0.057
44 | G33I | -0.97 ± 0.053
45 | I12R | -0.738 ± 0.042
46 | I12W | -0.435 ± 0.043
47 | I12G | -0.877 ± 0.047
48 | I12P | -0.716 ± 0.048

Row | Variant | abundance fitness
49 | E19C | -0.382 ± 0.053
50 | E19W | -0.77 ± 0.061
51 | E19S | -0.26 ± 0.04
52 | S25M | -0.1 ± 0.049
53 | S25K | 0.004 ± 0.047
54 | T31Q | -0.156 ± 0.045
55 | T31M | -0.285 ± 0.055
56 | T31P | -0.114 ± 0.035
57 | T31Y | 0.121 ± 0.04
58 | K48R | -0.072 ± 0.036
59 | K48A | -0.187 ± 0.041
60 | K48H | -0.213 ± 0.064
61 | L20W | -0.835 ± 0.044
62 | L20P | -0.961 ± 0.068
63 | M15F | -0.544 ± 0.052
64 | M15T | -0.414 ± 0.057
65 | M15P | -1 ± 0.092
66 | M15Y | -0.645 ± 0.05
67 | K39E | -0.939 ± 0.14
68 | K39I | -0.382 ± 0.055
69 | K39L | -0.632 ± 0.051
70 | K39W | -1.04 ± 0.2
71 | A6M | -0.096 ± 0.11
72 | A6I | 0.019 ± 0.082

Row | Variant | abundance fitness
73 | A6Q | -0.179 ± 0.11
74 | A6N | -0.003 ± 0.063
75 | A6Y | -0.008 ± 0.09
76 | L29V | -0.561 ± 0.04
77 | T8R | -0.174 ± 0.036
78 | T8M | -0.161 ± 0.053
79 | K47F | -0.572 ± 0.066
80 | K47I | -0.415 ± 0.057
81 | K47C | -0.491 ± 0.05
82 | K47M | -0.34 ± 0.061
83 | I7V | -0.091 ± 0.037
84 | I7A | -0.097 ± 0.04
85 | I7N | -0.17 ± 0.058
86 | I7Y | -0.14 ± 0.048
87 | I7H | -0.166 ± 0.057
88 | N9M | 0.036 ± 0.053
89 | N9F | -0.091 ± 0.054
90 | N9V | -0.092 ± 0.043
91 | N9S | -0.067 ± 0.037
92 | F27L | 0.148 ± 0.034
93 | F27H | 0.062 ± 0.049
94 | F27W | -0.453 ± 0.044
95 | F27Q | -0.166 ± 0.048
96 | F27K | -0.065 ± 0.049

Row | Variant | abundance fitness
97 | K28F | -0.407 ± 0.083
98 | K28Y | -0.39 ± 0.065
99 | K28W | -0.779 ± 0.059
100 | C11G | -0.058 ± 0.035
101 | C11S | 0.012 ± 0.037
102 | C11Y | -0.052 ± 0.037
103 | C11M | 0.057 ± 0.046
104 | E26R | -0.472 ± 0.046
105 | E26S | -0.185 ± 0.048
106 | E26I | -0.432 ± 0.081
107 | E26L | -0.22 ± 0.053
108 | V34L | -0.213 ± 0.044
109 | V34S | -0.109 ± 0.043
110 | V34R | 0.11 ± 0.05
111 | V34G | -0.213 ± 0.05
112 | V34T | 0.046 ± 0.051
113 | V34D | -0.293 ± 0.077
114 | V34K | 0.079 ± 0.08
115 | L24A | -0.704 ± 0.06
116 | L24N | -1.03 ± 0.13
117 | V1D | -0.078 ± 0.054
118 | V1M | -0.065 ± 0.081
119 | V1C | -0.072 ± 0.071
120 | V1G | 0.002 ± 0.044

Row | Variant | abundance fitness
121 | I5Q | 0.041 ± 0.057
122 | I5H | -0.006 ± 0.042
123 | I5K | -0.042 ± 0.056
124 | I5G | 0.025 ± 0.046
125 | E4K | -0.251 ± 0.056
126 | E4I | -0.287 ± 0.063
127 | E4Y | -0.164 ± 0.053
128 | E4P | -0.107 ± 0.051
129 | V37K | 0.027 ± 0.075
130 | V37N | -0.321 ± 0.076
131 | V37P | -1.02 ± 0.11
132 | V37L | -0.544 ± 0.052
133 | V37R | -0.124 ± 0.066
134 | K35N | -0.697 ± 0.05
135 | K35Y | -0.827 ± 0.057
136 | K35F | -0.81 ± 0.052
137 | K35P | -0.797 ± 0.05
138 | K35R | -0.52 ± 0.041
139 | K40I | -0.819 ± 0.07
140 | K40E | -0.44 ± 0.055
141 | Y2R | -0.072 ± 0.045
142 | Y2N | 0.067 ± 0.062
143 | Y2A | 0.006 ± 0.052
144 | Y2S | 0.028 ± 0.044

Row | Variant | abundance fitness
145 | R41A | -0.891 ± 0.046
146 | R41Q | -0.992 ± 0.066
147 | R41Y | -0.941 ± 0.12
148 | K50Y | -0.162 ± 0.058
149 | K50N | -0.06 ± 0.048
150 | K3R | -0.131 ± 0.035
151 | K3H | -0.055 ± 0.064
152 | N13K | -0.376 ± 0.048
153 | N13Q | -0.629 ± 0.051
154 | N13T | -0.684 ± 0.051
155 | N13R | -0.415 ± 0.035
156 | G10K | -0.112 ± 0.044
157 | E18P | -0.008 ± 0.045
158 | L38A | -0.893 ± 0.11
159 | L38D | -0.376 ± 0.25
160 | L38T | -0.993 ± 0.065
161 | L38P | -0.968 ± 0.072
162 | L42E | -0.892 ± 0.057
163 | L42F | -0.551 ± 0.057
164 | L42T | -1.1 ± 0.087
165 | A22F | -0.12 ± 0.049
166 | A22L | -0.052 ± 0.038
167 | A22T | -0.055 ± 0.052
